Experimental data taken from US7521540B2, “CYR61 compositions and methods” (Munin Corporation, priority 1996, dated 2009).

B1: Cyr61: Cysteine-rich ECM signaling protein; murine sequence SEQ ID NO:2, recombinant from Baculovirus-infected Sf9 cells (protein, listed as Mus musculus)
chain: MSSSTFRTLAVAVTLLHLTRLALSTCPAACHCPLEAPKCAPGVGLVRDGCGCCKVCAKQLNEDCSKTQPCDHTKGLECNFGASSTALKGICRAQSEGRPCEYNSRIYQNGESFQPNCKHQCTCIDGAVGCIPLCPQELSLPNLGCPNPRLVKVSGQCCEEWVCDEDSIKDSLDDQDDLLGLDASEVELTRNNELIAIGKGSSLKRLPVFGTEPRVLFNPLHAHGQKCIVQTTSWSQCSKSCGTGISTRVTNDNPECRLVKETRICEVRPCGQPVYSSLKKGKKCSKTKKSPEPVRFTYAGCSSVKKYRPKYCGSCVDGRCCTPLQTRTVKMRFRCEDGEMFSKNVMMIQSCKCNYNCPHPNEASFRLYSLFNDIHKFRD
B2: Fisp12: Cysteine-rich murine protein, SEQ ID NO:6, mouse ortholog of CTGF (protein, listed as Mus musculus)
chain: MLASVAGPISLALVLLALCTRPATGQDCSAQCQCAAEAAPHCPAGVSLVLDGCGCCRVCAKQLGELCTERDPCDPHKGLFCDFGSPANRKIGVCTAKDGAPCVFGGSVYRSGESFQSSCKYQCTCLDGAVGCVPLCSMDVRLPSPDCPFPRRVKLPGKCCKEWVCDEPKDRTAVGPALAAYRLEDTFGPDPTMMRANCLVQTTEWSACSKTCGMGISTRVTNDNTFCRLEKQSRLCMVRPCEADLEENIKKGKKCIRTPKIAKPVKFELSGCTSVKTYRAKFCGVCTDGRCCTPHRTTTLPVEFKCPDGEIMKKNMMFIKTCACHYNCPGDNDIFESLYYRKMYGDMA

Experiments:
[1] = Sensitivity of Cyr61 cell-attachment activity to DTT, heat, acid and protease; format: physicochemical
Description: Because murine Cyr61 contains 38 cysteines in the 355 amino acid secreted portion, the contribution of disulfide bond formation to Cyr61 tertiary structure was investigated. […] However, Cyr61 was inactivated by heating at 75° C. for 5 minutes, by incubation in 100 mM HCl, or upon extensive digestion with chymotrypsin. […] In addition, Cyr61 is neither phosphorylated nor glycosylated.
Another embodiment of the invention is directed to the use of Cyr61 to mediate cellular attachment to the extracellular matrix. Induction of cellular adhesion was investigated using murine Cyr61, fibronectin, and bovine serum albumin (BSA). Immunological 96-well plates (Falcon brand) were coated with 50 μl of 0.1% BSA in PBS at 4° C. in the presence of 0-30 μg/ml concentrations of murine Cyr61 or fibronectin. After two hours exposure to the coating solution, non-diluted immune or pre-immune antisera (30 μl/well), or affinity-purified anti-Cyr61 antibodies were added. For some wells, the coating mixture was adjusted to 10 mM DTT or 100 mM HCl. After 16 hours incubation, the coating solution was removed and the well surface was blocked with 1% BSA in phosphate-buffered saline (PBS) for 1 hour at room temperature. HUVE cells were plated in Ham's complete F12K medium [GIBCO-BRL, Inc.; Ham, Proc. Natl. Acacd. Sci. (USA) 53:786 (1965)] at 5×10^3-10^4 cells/well. Cycloheximide was added to 100 μg/ml immediately before plating and monensin was added to 1 μM 14 hours before plating. After a 2-hour incubation at 37° C., the wells were washed with PBS and attached cells were fixed and stained with methylene blue. The attachment efficiency was determined by quantitative dye extraction and measurement of the extract absorbance at 650 nm. Oliver et al., J. Cell. Sci. 92:513-518 (1989).

[2] = tested on: HUVE cells; experiment: Fisp12 cell attachment assay, HUVE cells; format: cell-based, human; settings: coating 20 μg/ml, HUVE cells
Description: The capacity of Fisp12 to affect cell adhesion was also investigated. Fisp12 cell attachment assays were performed essentially as described (Oliver et al., [1989]). 96-well immunological plates were coated for 16 hours at 4° C. with 20 μg/ml Cyr61, Fisp12 or fibronectim (Gibco BRL) in PBS containing 0.1 mg/ml BSA and blocked with 10 mg/ml BSA for 1 hour at room temperature. HUVE cells were plated at 10^4 cells/well in F12K media with 10% FBS (Hyclone Laboratories, Inc., Logan, Utah); NIH 3T3 fibroblasts were plated at 3×10^4 cells/well and Mv1Lu cells were plated at 5×10^4 cells/well in minimal essential medium (MEM) with 10% FBS. After 1 hour incubation cells were fixed, stained with methylene blue and quantified as described (Oliver et al., [1989]). Cell spreading was examined on cells plated on 100 mm polystyrene petri dishes coated with 2.5 ml of a 20 μg/ml solution of Cyr61, Fisp12 or fibronectin. 10^7 cells were plated on each dish and cell spreading was analyzed 90 minutes after plating by microscopy at 100× magnification.

[3] = tested on: Human Microvascular Endothelial Cells; experiment: Endothelial cell migration, inverted modified Boyden chamber; format: cell-based
Description: In an alternative in vitro assay for angiogenic activity, an assay for endothelial cell migration was developed. […] Primary Human Microvascular Endothelial Cells (HMVEC PO51, Clonetics, San Diego, Calif.) were maintained in DME with 10% donor calf serum (Flow Laboratories, McLean, Va.) and 100 μg/ml endothelial celi mitogen (Biomedical Technologies Inc., Stoughton, Mass.). The cells were used between passages 10 and 15. To measure migration, cells were starved for 24 hours in DME containing 0.1% BSA, harvested, resuspended in DME with 0.1% BSA, and plated at 1.75×10^4 cells/well on the lower surface of a gelatinized 0.5 μm filter (Nucleopore Corporation, Pleasanton. Calif.) in an inverted modified Boyden chamber. After 1-2 hours at 37° C., during which time the cells were allowed to adhere to the filter, the chamber was reverted to its normal position. To the top well of separate chambers, basic Fibroblast Growth Factor (a positive control), Cyr61, or a negative control solution (conditioned medium known to lack chemoattractants or DME plus BSA, see below) was added at concentrations ranging from 10 ng/ml to 10 μg/ml. Chambers were then incubated for 3-4 hours at 37° C. to allow migration. Chambers were disassembled, membranes fixed and stained, and the number of cells that had migrated to the top of the filter in 3 high-powered fields was determined. Tolsma et al., J. Cell. Biol. 122:497-511 (1993) (incorporated by reference), and references cited therein. DME with 0.1% BSA was used as a negative control and either bFGF (10 ng/ml) or conditioned media from angiogenic hamster cell lines (20 μg/ml total protein) were used as positive controls. Rastinejad et al., Cell 56:345-355 (1989). Each sample was tested in quadruplicate (test compound such as Cyr61, positive control, conditioned medium as a negative control, and DME plus BSA as a negative control) in a single experiment; experiments were repeated at least twice.
To allow comparison of experiments performed on different days, migration data is reported as the percent of maximum migration towards the positive control, calculated after subtraction of background migration observed in the presence of DME plus BSA. […] Very high concentrations of thrombospondin (TSP) caused endothelial cells to detach from the membrane. Detachment was detected by counting cells on the lower face of the membrane. When cell loss exceeded 10%, the number of migrated cells was corrected for this loss. […] At 10 ng/ml, Cyr61 induced an average of 64 cells to migrate per three high-powered fields examined.

| Molecule | ability to mediate cell attachment after treatment ([1]; 10 mM dithiothreitol (DTT), 16 hours) | activity after heating ([1]; 75° C. for 5 minutes) | activity after protease ([1]; extensive digestion with chymotrypsin) | activity after acid ([1]; incubation in 100 mM HCl) | cell attachment to coated dishes [2] | migrated cells per three high-powered fields ([3]; 10 ng/ml) | migrated cells per three high-powered fields ([3]; 100 ng/ml) | migrated cells per three high-powered fields ([3]; 1 μg/ml) | migrated cells per three high-powered fields ([3]; 10 μg/ml) | migrated cells per three high-powered fields ([3]; approximately 7 μg/ml) |
| --- | --- | --- | --- | --- | --- | --- | --- | --- | --- | --- |
| B1 | did not affect the ability of Cyr61 to mediate cell attachment | inactivated | inactivated | inactivated | promoted the attachment | 64 cells | approximately 72 cells | 87 cells | approximately 57 cells | about 61 cells |
| B2 | – | – | – | – | promoted the attachment | – | – | – | – | – |
